Earlier results in paper PMC11211486.

Tests used:
[1] = target: PBP4 (Escherichia coli) (UniProt P24228)
[2] = target: MepM (Escherichia coli) (UniProt P0AFS9)
[3] = target: MepS (Escherichia coli) (UniProt P0AFV4)
Chain of MepS (Escherichia coli) (P0AFV4 27-188): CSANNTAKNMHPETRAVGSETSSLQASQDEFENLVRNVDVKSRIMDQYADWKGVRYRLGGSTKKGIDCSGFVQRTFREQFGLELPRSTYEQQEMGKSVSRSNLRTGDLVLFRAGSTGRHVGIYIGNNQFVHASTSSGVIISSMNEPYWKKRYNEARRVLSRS

Chain of NlpI (C4ZSQ4 19-294): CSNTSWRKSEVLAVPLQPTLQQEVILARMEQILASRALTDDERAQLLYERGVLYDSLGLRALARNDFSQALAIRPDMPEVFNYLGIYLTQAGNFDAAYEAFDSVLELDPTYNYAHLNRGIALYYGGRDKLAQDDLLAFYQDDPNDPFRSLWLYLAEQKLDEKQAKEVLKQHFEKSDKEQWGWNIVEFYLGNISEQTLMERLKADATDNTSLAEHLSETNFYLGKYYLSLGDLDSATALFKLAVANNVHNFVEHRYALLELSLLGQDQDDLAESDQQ
Chain of PBP4 (Escherichia coli) (P24228 21-477): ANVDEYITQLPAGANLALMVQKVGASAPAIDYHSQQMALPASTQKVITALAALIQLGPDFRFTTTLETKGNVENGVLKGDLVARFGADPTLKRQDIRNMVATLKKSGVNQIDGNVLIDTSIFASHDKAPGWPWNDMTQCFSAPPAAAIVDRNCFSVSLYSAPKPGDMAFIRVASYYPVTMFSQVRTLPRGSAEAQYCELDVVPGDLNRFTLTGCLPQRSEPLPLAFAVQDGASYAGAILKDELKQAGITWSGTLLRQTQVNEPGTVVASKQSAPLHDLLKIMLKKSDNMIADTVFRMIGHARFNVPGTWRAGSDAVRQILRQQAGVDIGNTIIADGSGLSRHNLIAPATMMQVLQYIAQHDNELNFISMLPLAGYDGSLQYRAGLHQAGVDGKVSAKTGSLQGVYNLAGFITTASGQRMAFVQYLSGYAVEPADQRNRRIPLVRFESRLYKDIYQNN
Chain of MepM (Escherichia coli) (P0AFS9 whole entry): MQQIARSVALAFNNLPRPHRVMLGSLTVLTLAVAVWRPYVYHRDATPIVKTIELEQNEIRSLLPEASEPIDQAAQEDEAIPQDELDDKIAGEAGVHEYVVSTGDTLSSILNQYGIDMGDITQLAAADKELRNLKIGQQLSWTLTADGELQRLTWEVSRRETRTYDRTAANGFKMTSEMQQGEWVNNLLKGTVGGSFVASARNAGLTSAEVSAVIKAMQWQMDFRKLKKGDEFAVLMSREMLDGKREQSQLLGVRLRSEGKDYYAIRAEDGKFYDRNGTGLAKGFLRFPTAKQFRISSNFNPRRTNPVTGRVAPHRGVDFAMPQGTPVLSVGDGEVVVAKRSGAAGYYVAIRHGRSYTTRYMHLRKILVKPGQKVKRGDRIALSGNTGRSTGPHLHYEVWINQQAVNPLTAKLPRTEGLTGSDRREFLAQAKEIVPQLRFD

Kd [1]: 150 nM | Kd [2]: 150 nM | Kd [3]: 150 nM
Substance: NlpI (from UniProt C4ZSQ4)
